Data on 4 molecules can be found in publication PMC10616196, “A marine cryptochrome with an inverse photo-oligomerization mechanism” (Nature Communications, 2023).

Experiment [1] has as its target Platynereis dumerilii L-CRY (PdLCry), wildtype (Platynereis dumerilii). Kind of experiment: SEC; analytical SEC with inline UV/Vis, Superdex 200 Increase 5/150 GL, far-red light (dark) conditions; 7 µL at 5 mg mL^-1; 25 mM Bis-tris propane pH 8.0, 150 mM NaCl, 1 mM TCEP.
Experiment [2] has the same target. The experiment can be described thus: cryo-EM structure; dark state: vitrified under far-red light; 0.7 mg mL^-1 in 25 mM Bis-tris propane pH 8.0, 150 mM NaCl, 1 mM TCEP, 0.01% fluorinated octyl maltoside; 2D classification and C2 refinement.
For experiment [3] the target is unchanged. Kind of experiment: cryo-EM structure; blue light state: grids illuminated for 30 s with a 455 nm LED, vitrified within less than 5 s; 0.7 mg mL^-1 in 25 mM Bis-tris propane pH 8.0, 150 mM NaCl, 1 mM TCEP; 2D classification, C1 map filtered to 8 Å.
Experiment [4] deals with T1, PdLCry (L-CRY) (Platynereis dumerilii, UniProt Z9ZPX6J9J5).
T1 construct: full length, N-terminal His6 tag, expressed in Sf9 insect cells (pCoofy27, baculovirus); 565 residues, model 31-556; homodimer in dark, monomer under blue light
T1 sequence (Z9ZPX6J9J5 1-565): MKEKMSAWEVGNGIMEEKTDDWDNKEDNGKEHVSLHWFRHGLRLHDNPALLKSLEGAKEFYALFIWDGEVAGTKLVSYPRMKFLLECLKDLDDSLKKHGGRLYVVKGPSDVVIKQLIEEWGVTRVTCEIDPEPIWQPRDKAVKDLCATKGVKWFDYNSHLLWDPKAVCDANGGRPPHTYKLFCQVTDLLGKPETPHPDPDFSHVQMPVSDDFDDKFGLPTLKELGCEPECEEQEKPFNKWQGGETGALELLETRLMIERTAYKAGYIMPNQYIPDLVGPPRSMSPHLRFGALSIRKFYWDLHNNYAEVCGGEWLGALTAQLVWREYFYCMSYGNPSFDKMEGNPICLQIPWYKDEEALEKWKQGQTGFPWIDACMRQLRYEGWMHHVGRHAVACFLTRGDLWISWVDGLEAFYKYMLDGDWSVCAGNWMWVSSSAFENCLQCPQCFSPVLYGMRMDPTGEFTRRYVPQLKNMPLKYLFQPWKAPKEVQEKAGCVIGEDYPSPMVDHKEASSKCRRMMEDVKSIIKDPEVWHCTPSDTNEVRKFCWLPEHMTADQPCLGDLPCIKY
The experiment can be described thus: cryo-EM structure of the complex, […] A. In kind it is binding. Particulars: dark state, far-red light; pH 8.0; homodimer; near stoichiometric FAD occupancy; non-covalent.

Experiment [5] deals with T2, PdLCry (L-CRY) (Platynereis dumerilii, UniProt Z9ZPX6J9J5, Y352D).
T2 construct: full length, N-terminal His6 tag, expressed in Sf9 insect cells (pCoofy27, baculovirus); 565 residues, model 31-556; homodimer in dark, monomer under blue light
T2 sequence (Z9ZPX6J9J5 1-565 Y352D): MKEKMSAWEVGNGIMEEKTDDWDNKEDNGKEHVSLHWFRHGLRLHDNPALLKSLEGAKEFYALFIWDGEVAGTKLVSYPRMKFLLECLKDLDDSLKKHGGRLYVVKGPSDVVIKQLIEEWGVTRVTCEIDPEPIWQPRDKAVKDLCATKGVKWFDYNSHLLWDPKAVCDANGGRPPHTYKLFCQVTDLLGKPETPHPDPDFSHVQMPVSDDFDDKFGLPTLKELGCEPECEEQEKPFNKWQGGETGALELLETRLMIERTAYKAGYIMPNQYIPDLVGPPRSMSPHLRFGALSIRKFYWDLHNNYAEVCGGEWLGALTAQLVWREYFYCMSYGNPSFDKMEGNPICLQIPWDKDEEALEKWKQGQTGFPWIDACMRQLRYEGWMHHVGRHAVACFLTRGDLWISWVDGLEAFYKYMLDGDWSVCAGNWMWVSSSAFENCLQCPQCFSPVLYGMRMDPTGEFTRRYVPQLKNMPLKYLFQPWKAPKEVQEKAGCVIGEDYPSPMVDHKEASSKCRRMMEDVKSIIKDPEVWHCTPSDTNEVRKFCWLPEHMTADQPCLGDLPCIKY
Kind of experiment: UV/Vis spectroscopy of FAD photoreduction. In kind it is binding. Particulars: naturalistic sunlight, on ice; pH 8.0; co-purified FAD.

In experiment [6] the target is T3, PdLCry (L-CRY) (Platynereis dumerilii, UniProt Z9ZPX6J9J5, Y352A).
T3 construct: full length, N-terminal His6 tag, expressed in Sf9 insect cells (pCoofy27, baculovirus); 565 residues, model 31-556; homodimer in dark, monomer under blue light
T3 sequence (Z9ZPX6J9J5 1-565 Y352A): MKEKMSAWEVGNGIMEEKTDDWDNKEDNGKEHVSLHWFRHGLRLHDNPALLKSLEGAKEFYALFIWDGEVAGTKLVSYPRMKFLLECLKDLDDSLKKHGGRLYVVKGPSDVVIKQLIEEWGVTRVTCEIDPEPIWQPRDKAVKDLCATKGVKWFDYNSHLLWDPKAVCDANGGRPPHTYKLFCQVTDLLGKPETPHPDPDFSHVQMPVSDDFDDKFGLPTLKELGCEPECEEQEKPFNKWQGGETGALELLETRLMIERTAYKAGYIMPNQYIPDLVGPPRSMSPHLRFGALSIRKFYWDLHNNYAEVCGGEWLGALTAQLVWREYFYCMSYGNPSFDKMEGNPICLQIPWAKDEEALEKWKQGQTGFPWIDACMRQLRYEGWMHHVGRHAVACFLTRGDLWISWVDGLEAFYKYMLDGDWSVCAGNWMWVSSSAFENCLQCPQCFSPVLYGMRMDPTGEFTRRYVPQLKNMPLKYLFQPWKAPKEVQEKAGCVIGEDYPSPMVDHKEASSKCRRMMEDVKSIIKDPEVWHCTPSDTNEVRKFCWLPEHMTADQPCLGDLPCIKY
Kind of experiment: UV/Vis spectroscopy of FAD photoreduction. Particulars: naturalistic sunlight, on ice; pH 8.0; co-purified FAD. In kind it is binding.

The target of experiment [7] is T4, PdLCry^Y352A (Platynereis dumerilii).
T4 chain: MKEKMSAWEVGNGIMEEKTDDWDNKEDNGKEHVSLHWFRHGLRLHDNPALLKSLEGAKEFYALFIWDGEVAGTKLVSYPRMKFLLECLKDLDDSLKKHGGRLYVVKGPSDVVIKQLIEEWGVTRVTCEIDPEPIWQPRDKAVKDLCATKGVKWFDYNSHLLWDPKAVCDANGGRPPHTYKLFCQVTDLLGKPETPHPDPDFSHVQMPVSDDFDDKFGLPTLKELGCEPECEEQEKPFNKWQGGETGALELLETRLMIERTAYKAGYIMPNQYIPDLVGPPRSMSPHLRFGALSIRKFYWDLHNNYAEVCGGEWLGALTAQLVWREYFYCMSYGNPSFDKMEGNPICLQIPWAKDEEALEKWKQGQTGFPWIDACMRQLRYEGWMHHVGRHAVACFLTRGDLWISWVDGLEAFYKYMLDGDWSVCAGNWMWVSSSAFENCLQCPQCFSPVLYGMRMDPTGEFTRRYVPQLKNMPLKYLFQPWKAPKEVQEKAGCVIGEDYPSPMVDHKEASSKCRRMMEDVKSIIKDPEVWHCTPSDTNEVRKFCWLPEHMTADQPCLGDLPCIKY
Kind of experiment: SEC; final SEC step of the purification in dark or dim red light (Superdex S200 10/300 GL or HiLoad S200 16/60; 25 mM Bis-tris propane pH 8.0, 150 mM NaCl, 5% glycerol, 1 mM TCEP). The conditions noted are these: both partners purified. A general note: Size exclusion chromatography separates by hydrodynamic size, large species first.

In experiment [8] the target is T5, PdLCry^Y352D (Platynereis dumerilii).
T5 chain: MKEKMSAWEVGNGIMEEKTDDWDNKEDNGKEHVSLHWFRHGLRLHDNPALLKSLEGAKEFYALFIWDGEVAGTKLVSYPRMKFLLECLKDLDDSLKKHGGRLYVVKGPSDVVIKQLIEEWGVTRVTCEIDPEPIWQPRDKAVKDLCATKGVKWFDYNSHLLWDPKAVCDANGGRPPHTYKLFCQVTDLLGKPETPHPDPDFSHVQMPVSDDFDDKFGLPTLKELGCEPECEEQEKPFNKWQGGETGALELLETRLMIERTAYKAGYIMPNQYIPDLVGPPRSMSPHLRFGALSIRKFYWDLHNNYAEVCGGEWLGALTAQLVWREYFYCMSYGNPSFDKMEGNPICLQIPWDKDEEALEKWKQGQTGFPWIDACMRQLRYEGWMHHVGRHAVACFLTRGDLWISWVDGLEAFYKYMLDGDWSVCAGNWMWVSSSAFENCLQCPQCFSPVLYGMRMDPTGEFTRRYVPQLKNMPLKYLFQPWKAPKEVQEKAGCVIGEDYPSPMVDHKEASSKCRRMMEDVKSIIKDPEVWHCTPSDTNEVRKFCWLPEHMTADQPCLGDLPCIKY
Described as above. Particulars: both partners purified.

In experiment [1], “Platynereis dumerilii L-CRY (PdLCry), wildtype (natural protein)” came in with a stoichiometry N of 2. In experiment [2], this molecule registered a percent of the protein present as a dimer of 80% and a stoichiometry N of 2. This molecule registered a percent of the protein monomeric in experiment [3] above 90%.
As to `Cc1cc2nc3c(=O)[nH]c(=O)nc-3n(C[C@H](O)[C@H](O)[C@H](O)COP(=O)(O)OP(=O)(O)OC[C@H]3O[C@@H](n4cnc5c(N)ncnc54)[C@H](O)[C@@H]3O)c2cc1C` [flavin adenine dinucleotide], in experiment [4], the “cryo-EM structure of the complex, 2.6 A” value is recorded as “We observe a near stochiometric occupancy of the ligand FAD”. Moreover, the “UV/Vis spectroscopy of FAD photoreduction” value in experiment [5] and in experiment [6] was “both mutations lead to a less efficient FAD photoreduction under illumination conditions mimicking naturalistic sunlight” each time.

B1: PdLCry^Y352A (natural protein)
chain: MKEKMSAWEVGNGIMEEKTDDWDNKEDNGKEHVSLHWFRHGLRLHDNPALLKSLEGAKEFYALFIWDGEVAGTKLVSYPRMKFLLECLKDLDDSLKKHGGRLYVVKGPSDVVIKQLIEEWGVTRVTCEIDPEPIWQPRDKAVKDLCATKGVKWFDYNSHLLWDPKAVCDANGGRPPHTYKLFCQVTDLLGKPETPHPDPDFSHVQMPVSDDFDDKFGLPTLKELGCEPECEEQEKPFNKWQGGETGALELLETRLMIERTAYKAGYIMPNQYIPDLVGPPRSMSPHLRFGALSIRKFYWDLHNNYAEVCGGEWLGALTAQLVWREYFYCMSYGNPSFDKMEGNPICLQIPWAKDEEALEKWKQGQTGFPWIDACMRQLRYEGWMHHVGRHAVACFLTRGDLWISWVDGLEAFYKYMLDGDWSVCAGNWMWVSSSAFENCLQCPQCFSPVLYGMRMDPTGEFTRRYVPQLKNMPLKYLFQPWKAPKEVQEKAGCVIGEDYPSPMVDHKEASSKCRRMMEDVKSIIKDPEVWHCTPSDTNEVRKFCWLPEHMTADQPCLGDLPCIKY
modifications: FAD bound; dimer in dark / FAD bound; dimer in dark
Take B1: in experiment [7], the “stoichiometry N” value turned out to be 2.

B2: PdLCry^Y352D (natural protein)
chain: MKEKMSAWEVGNGIMEEKTDDWDNKEDNGKEHVSLHWFRHGLRLHDNPALLKSLEGAKEFYALFIWDGEVAGTKLVSYPRMKFLLECLKDLDDSLKKHGGRLYVVKGPSDVVIKQLIEEWGVTRVTCEIDPEPIWQPRDKAVKDLCATKGVKWFDYNSHLLWDPKAVCDANGGRPPHTYKLFCQVTDLLGKPETPHPDPDFSHVQMPVSDDFDDKFGLPTLKELGCEPECEEQEKPFNKWQGGETGALELLETRLMIERTAYKAGYIMPNQYIPDLVGPPRSMSPHLRFGALSIRKFYWDLHNNYAEVCGGEWLGALTAQLVWREYFYCMSYGNPSFDKMEGNPICLQIPWDKDEEALEKWKQGQTGFPWIDACMRQLRYEGWMHHVGRHAVACFLTRGDLWISWVDGLEAFYKYMLDGDWSVCAGNWMWVSSSAFENCLQCPQCFSPVLYGMRMDPTGEFTRRYVPQLKNMPLKYLFQPWKAPKEVQEKAGCVIGEDYPSPMVDHKEASSKCRRMMEDVKSIIKDPEVWHCTPSDTNEVRKFCWLPEHMTADQPCLGDLPCIKY
modifications: FAD bound; dimer in dark / FAD bound; dimer in dark
Regarding B2, the “stoichiometry N” value in experiment [8] amounted to 2.

As usually defined, the stoichiometry N is a count of units in the complex or per binding partner.
